Test system: MS2 coat protein
Assay: apparent KD of MS2 coat protein; designed switch direction (-1 OFF switch, 1 ON switch): -1; higher = weaker reporter binding
In short: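 On Illumina chips, designed RNA switches with common flanks were made by stalled E. coli RNA polymerase. Titrations with SNAP-549-labelled MS2 coat protein, doubling from 0.7 or 1.5 nM to 3 µM, were done with no input, with 200 uM small-molecule ligand, or with an oligonucleotide input. Apparent KD is the median per design over clusters, from curve fits of normalised cluster fluorescence.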

[1] = Eterna round: R95, input ligand: microRNA oligo, concentration not stated
[2] = input ligand: microRNA oligo, concentration not stated
[3] = Eterna round: R95, input ligand: FMN 200 uM
[4] = Eterna round: R95, input ligand: none

Sequence	apparent KD of MS2 coat protein [1] [nM]	apparent KD of MS2 coat protein (input ligand: FMN 200 uM) [nM]	apparent KD of MS2 coat protein [2] [nM]	apparent KD of MS2 coat protein (input ligand: none) [nM]	apparent KD of MS2 coat protein [3] [nM]	apparent KD of MS2 coat protein [4] [nM]
CCGAAUAUGCAGGAUAUCUUAUCGGAAACGAUAAGAGAAGGGUAAACAUGAGGAUCACCCAUGUUCCUUAACGG [Mat - Exclusion 6 - Eli Mod - D80] (puzzle: Exclusion 6)	18.9					
UUUGUUUAUGUAGGAUAUGCCUGGCGUGCCUUUGCAGAAGGACAUGAGGAUCACCCAUGUAUUGCGGUCUGCGUUCAGAUCGCC [salish99_ExNG1_r4_036] (Eterna round: R96, puzzle: Exclusion NG 1)		29.6	17.4	23		
CCAUCGUGUGUGAGGAUAUGCUGGUCCUUGGAUCAGCAGAAGGCACAUGAGGAUCACCCAUGUGAAUACGGUGG [JL bmx4 3.21] (puzzle: Brourd's mod of Exclusion 4)	17.8					
UGUACGAUGCGUGCUGACAUGCGUCGUGCAGCAGGUGAUACAUGAGGAUCACCCAUGUCCUCAUUUGCUCGUCUUGU [SL-sv3-2.11 JL mod] (puzzle: Sensor v3, turn-off variant 2)	267				82.5	85.6
GGGUGCAGGCUGAGAUCCUACAUGAGGAUCACCCAUGUGGUCCGGUGACGUGAGUCACCGGACUUAGCUCGUCUUGU [salish99_S_TOV1_R5_007] (Eterna round: R97, puzzle: Sensor, turn-off variant 1)		162		192		
UUCCAACGAGGAUAUCGAUGGUGGAACAUGAGGAUCACCCAUGUAUGAGAUAUUGUAGUUCGAGAAGGCGUUCAGU [JR_E5_Sub056] (puzzle: Exclusion 5)	31.5					
UUGGUUGUGGUAGGAUAUCCGUUGGAAACCUUCGGAGAAGGACCACAGUCACUGGGUCUUUGUCUGGUGGACGGUGAAAACCGU [pwkr exNG1 F6.22] (Eterna round: R96, puzzle: Exclusion NG 1)		138	498	730		
AGUACUGACACGUUGGUGUUAGUACAAUAAGCUUGUGAUACAUGAGGAUCACCCAUGUCCUCAUAAGCUCGUCUUAU [salish99_TOv2_r2_093] (puzzle: Sensor v3, turn-off variant 2)	881				26.1	21.1
AAUAACAAGUAGAUCCUAAACAUGAGGAUCACCCAUGUGCUCGUCUUGUAAAGUACUAUCACGAAAGUGAUAGUACA (Eterna round: R97, puzzle: Sensor, turn-off variant 1)		84.5		85.2		
AGCCUAGCAGGAUAUGCCCGGGAUAACAUGAGGAUCACCCAUGUGACUGAUUGAUGUCUUGCAGAAGGGCUAGGGA [JL-EX5-4.03 ViennaUCT mod] (Eterna round: R97, puzzle: Exclusion 5)		211		26.1		
UUCUUUAUACGAGGAUAUCAUACAUGAGGAUCACCCAUGUGGCUGGGUCUGUUUUUAUAUAAUAUUGAGAAGGCGUUUUGCUAU [JR_ExcNG2_Sub072] (Eterna round: R96, puzzle: Exclusion NG 2)		223	70.5	80.9		
CCUCCCGCCGUCAGGAUAUGCCGUACCGCUGCGCUCCAGAAGGCACUUGAGGAUCACCCAAGUACCCGUGAGGC [salish99_bmod_ex4_r4_009] (Eterna round: R97, puzzle: Brourd's mod of Exclusion 4)		16		16.1		
AGUAGGUCUACCUUGGUGGAUCUGCAUUAUUCAAGUGUUACAUGAGGAUCACCCAUGUCCUCAUUUGCUCGUCUUAU [JL turnoff v2 99.25] (puzzle: Sensor v3, turn-off variant 2)	45.7				385	417
GACCUAUAGGUAGGAUAUCAUUGCGAUUAGCUAUGAGAAGGGCCACAUGAGGAUCACCCAUGUCCUCCAAUUAACCAUAAGGUC [Fiskers ExNg1 - 6] (Eterna round: R96, puzzle: Exclusion NG 1)		38.5	26.7	37.3		
AUUUCGGCAGGAUAUACAUGAGGAUCACCCAUGUAAAUUUUUCGUUUAACUUGAAUGUGUAGAAGGGCCAUUUA [Ex3 #61] (Eterna round: R97, puzzle: Exclusion 3)		21.8		26.6		
GCUGGUCGAGGAUAUACAUGAGGAUCACCCAUGUAGAUCAACCAGCGAUAGCUGGAAUGUAGAAGGCGACCAGC [E3/5-A1] (Eterna round: R97, puzzle: Exclusion 3)		125		22.9		
UAGGCACCUGCAGGAUAUUAGAGGCGCUUUCUGUAAGAAGGGCAGGUUCACAUGAGGAUCACCCAUGUAAAGAACAGCAUGGCA [Eternabot solution 24] (Eterna round: R96, puzzle: Exclusion NG 1)		23.1	17.4	28.9		

Sequence	apparent KD of MS2 coat protein [1] [nM]	apparent KD of MS2 coat protein (input ligand: FMN 200 uM) [nM]	apparent KD of MS2 coat protein [2] [nM]	apparent KD of MS2 coat protein (input ligand: none) [nM]	apparent KD of MS2 coat protein [3] [nM]	apparent KD of MS2 coat protein [4] [nM]
UCAUGGUAGCAGGAUAUGCUUGUUUUUUUUUUUGCAGAAGGGCUUACAUGAGGAUCACCCAUGUGUUAGGUCUA [JR_E6_Sub067] (puzzle: Exclusion 6)	27.6					
UUUUUAUAUGAAGGAUAUACUUAACAUGAGGAUCACCCAUGUGGUGUUGUGAGUGAGUGAGUUUAGUAGAAGGUCAAUAAUUUU [JMF's solution 9] (Eterna round: R96, puzzle: Exclusion NG 2)		996	180	286		
AGUACUAACACGAAAGUGUUAGUCCAAUAAGCUUGUGAAACAUGAGGAUCACCCAUGUCCUCAUAAGCUCGUCUUAU [salish99_TOv2_r3_038] (puzzle: Sensor v3, turn-off variant 2)	454				17.4	
UGAGCUUCAGGAUAUACAAGGCGACCGUGAGGUCGAAGGUUACAUGAGGAUCACCCAUGUAGAAGGGAAGUUCU [Mat - Exclusion 2 - JL Mod - D13] (Eterna round: R97, puzzle: Exclusion 2)		36.7		21.6		
ACAUGUUAUCCAUGAUAUCACAUGAGGAUCACCCAUGUUAUGGCGAUUUUGAGGUGUAAGUUUGUUGCUCGUCUUAU [JR_STOV1_Sub059] (Eterna round: R97, puzzle: Sensor, turn-off variant 1)		54.5		65.3		
GCACGGUAAGUGAGGAUAUACCUCUGGAUACAGAGGUAGAAGGCACAUGAGGAUCACCCAUGUUCAAGCCGUGC [Fiskers BMX 4 - 85] (puzzle: Brourd's mod of Exclusion 4)	13.2				14.5	14.4
GAAUACAGAGGAUAUGCGUAAUAGGUAGUAAGAUAUAUAUGACAUGAGGAUCACCCAUGUAGAAGGCUGAGAUA [EX2 #1] (Eterna round: R97, puzzle: Exclusion 2)		26.9		30.5		
GACCUGAGGCAAAGCUUUAGGCUUACAUGAGGAUCACCCAUGUAGGAUAUGGUAGGCAAAGCUUACCAGAAGGACAUGGAAAUU [Mat - Exclusion NG 3 - Mod of JL - D25] (Eterna round: R96, puzzle: Exclusion NG 3)		646	98.7	125		
AAACAAGCGUGAGGCUCGUCUUAAAAAGCCUCAUGAAAAACAUGAGGAUCACCCAUGUAAAAUGAUCGAAAGAUCAA [JL turnoff v2 29] (Eterna round: R96, puzzle: Sensor v2, turn-off variant 2)		15.5	43.4	17.6		
GUCCUCAUGACGCCUAAACACAUGAGGAUCACCCAUGUACAGGCUUUUUGUCGUCUUAUAAUAAAACCGAGGAUGCG [Xelaanen] (puzzle: Sensor v3, turn-off variant 1)	319				24.4	29.8
ACUCAAUAGUAGGAUAUCAUCAAACUAUUGUGAUGAGAAGGACUAACAUGAGGAUCACCCAUGUUAACGUGAAG [Mod of Brourd 4 - Jieux - Exclusion 6] (Eterna round: R97, puzzle: Exclusion 6)		23		20.3		
AGUUGGCGAGGAUAUACAUGAGGAUCACCCAUGUGAGAGAAUAAAGUGAGGAAGAAAAGUAGAAGGCGCUGACA [Mat - Exclusion 3 - Mod of Salish D9] (puzzle: Exclusion 3)	47.7					
GGGUGCGAGCUAAGAUCCUACAUGAGGAUCACCCAUGUGGUCCGGUGACGUGAGUCACCGGACUUAGCUCGUCUUGU [salish99_S_TOV1_R5_005] (Eterna round: R97, puzzle: Sensor, turn-off variant 1)		26.3		29.2		
GCUAUUAGAGGAUAUACAUGAGGAUCACCCAUGUGGUCAAGUCGGUGCCAACUGUUAGGUAGAAGGCUGGAGCC [Eternabot (L1) Solution 76] (Eterna round: R97, puzzle: Exclusion 3)		44.8		49.7		
GAGCUAUGAGGAUAUGCAUAGAUACGGAUUCGUGUAGUACUACAUGAGGAUCACCCAUGUAGAAGGCGUGGCUG [JL-ex2-2.02 mat747 mod] (puzzle: Exclusion 2)	15.4					
GAUUAUGCGAGCUUUAGGGACAUGAGGAUCACCCAUGUUCGUCUUAUUGGUCUGAAUACACUGACAUACCUAAAUCU [JMF 56] (Eterna round: R96, puzzle: Sensor v3, turn-off variant 1)		17.1	18.3	18.7		
AGAAGACAUGAGGAUCACCCAUGUAAGGAUAUUGGAGGUUAGGGAUGCUGGAGUUGGACAAGAAGGUACAGGUG [JR_Exclu1_Sub091] (puzzle: Exclusion 1)	46.9					
